Positions count from the first letter of the chain named. Names may count otherwise.
B1: Pdr16p (wild-type, recombinant Pdr16-His) (natural protein, S. cerevisiae, UniProt P53860 1-351, looked up)
chain: MFKRFSKKKEAPEDPKNLINIDKPIKELPASIAIPKEKPLTGEQQKMYDEVLKHFSNPDLKVYTSEKNKSEDDLKPLEEEEKAWLTRECFLRYLRATKWVLKDCIDRITMTLAWRREFGISHLGEEHGDKITADLVAVENESGKQVILGYENDARPILYLKPGRQNTKTSHRQVQHLVFMLERVIDFMPAGQDSLALLIDFKDYPDVPKVPGNSKIPPIGVGKEVLHILQTHYPERLGKALLTNIPWLAWTFLKLIHPFIDPLTREKLVFDEPFVKYVPKNELDSLYGGDLKFKYNHDVYWPALVETAREKRDHYFKRFQSFGGIVGLSEVDLRGTHEKLLYPVKSESSTV
notes: Pdr16p (Sfh3p) of Saccharomyces cerevisiae, ORF PDR16 amplified from YEplac181-PDR16 and inserted between NdeI and NotI of pET26; predicted monomer mass 40.7 kDa; The whole ORF was cloned NdeI-NotI into pET26 with a C-terminal 6xHis; No removal of the tag is described; also called Sfh3p; source: E. coli Rosetta, purified (Ni-NTA agarose)
B2: Pdr16p^(E235A, K267A) (recombinant Pdr16^(E235A, K267A)-His) (natural protein, S. cerevisiae, UniProt P53860 1-351, looked up)
chain: B1 chain with E235A, K267A
notes: Same construct as m1 with the two point mutations; source: E. coli Rosetta, purified (Ni-NTA agarose)

Biological target: the molecule itself
Assay: SEC; Superose 12 10/300 GL, 20 mM PIPES pH 6.8, 250 mM NaCl, 2.7 mM KCl, 0.4 ml/min; BSA and ovalbumin as molecular weight standards; apparent mass about 90 kDa against a predicted monomer of 40.7 kDa

Protein | stoichiometry N
B1 | 2
B2 | 2
